The chains are these.
B1: LINE1-full (parent)
chain: UACGUAGGUGGUUUUCCCCUGAUAGUGCUAAGGGGGCCUGGAAGUUUGGACUGGGCAGAGCUCAACACAGCGUGGCAAAGUGGCUGUGGCUAGACUGCCUCUCUGGAUUCCUCGUCACUCAGCAGGGCAUCUCUGAGAGAAAUGCC

In the data set the parent is B1. Kind of data set: self-cleavage, relative activity (ratio to wild type); higher = more cleavage; in vitro, sequencing; the parent is a self-cleaving ribozyme.
U23C A121U: the self-cleavage amounted to 0.66.
Then U23C A121G, with 2.
Then A22G U143A, with 1.19; and A22G U143C, with 0.97; and A24G U143A, with 0.72.
Then A24G G32A, with 1.13; and A22U U143G, with 1.27; and G25U U104A, with 0.77.
Regarding A24U U39A, the self-cleavage was determined as 0.84.
Then G25A A117U, with 1.25; and A24G G55A, with 0.3; and A24G G55U, with 0.26.
Turning to U23C U104C, the self-cleavage turned out to be 1.78.
Then U23C U104A, with 1.14.
Regarding A22U A117G, the self-cleavage was 0.65.
For the variant U23A U104C, the self-cleavage was found to be 0.84.
Then A24U A140U, with 2; and A22U A69U, with 0.12; and U23A U52A, with 1.37.
For A22U U108C, the self-cleavage stood at 1.19.
Then A22U U100C, with 1.54; and A24G A141G, with 1.22.
Then A22U A67G, with 0.41.
As to A24G C71U, the self-cleavage amounted to 1.03.
As for A22G U134C, the self-cleavage turned out to be 0.96.
With A22G U134A, the self-cleavage was found to be 1.03.
A22U U96A: the self-cleavage turned out to be 0.09.
Then A22U U96G, with 0.53; and U23A A31C, with 1.31.
For A24G A59U, the self-cleavage came to 1.17.
U23A U108A: the self-cleavage amounted to 1.44.
Turning to A24G A50G, the self-cleavage was found to be 1.16.
Then G25A G27A, with 1.03; and A24U C110A, with 1.1; and A24G U109A, with 2.43.
With A24U G33A, the self-cleavage was 1.07.
Consider A22U G40U, for which the self-cleavage is 0.87.
For the variant A22U G75A, the self-cleavage is 1.
Consider A24G G53A, for which the self-cleavage stood at 1.8.
Then U23C U112A, with 1.37.
With U23C G122A, the self-cleavage came out at 1.61.
Turning to A24C U73A, the self-cleavage worked out at 0.46.
With G25U U39C, the self-cleavage is 0.47.
Then U23C A94U, with 0.48; and A24U U87A, with 0.11; and A24G U39G, with 0.76.
Consider A24G U39C, for which the self-cleavage came to 1.11.
Then U23C A42U, with 1.22; and A22U C103U, with 1.42.
Then U26A A65U, with 0.14; and U26A A65G, with 0.16; and A22U G122A, with 1.19.
Then U23C C131U, with 1.84.
As for U23C A79G, the self-cleavage stood at 1.4.
Regarding U23C A79U, the self-cleavage came to 2.06.
Then A22U G72A, with 1.27.
As for U23C U62C, the self-cleavage was 0.04.
Regarding A22U G114A, the self-cleavage was determined as 1.44.
For A24G A57C, the self-cleavage is 0.
Then A24G G114C, with 1.7; and A22U A31G, with 1.04.
Then A22U U104C, with 1.31; and A22U U104A, with 1.01; and A24G C131U, with 1.59.
Then A22U A30G, with 1.98.
For the variant A24G A43G, the self-cleavage came out at 1.12.
As for A24G A43U, the self-cleavage was found to be 1.54.
Then G25A A78G, with 1.2.
Consider G25A G54C, for which the self-cleavage was found to be 1.02.
Then G25A U39A, with 1.15; and A24U G40A, with 0.71.
U23C G72U: the self-cleavage worked out at 0.
Then U23C G83A, with 1.02; and U23A A30G, with 2.09.
Then A24G G74A, with 0.93; and U23C A65C, with 0.
Then G25A A94G, with 0.21.
Take U23G C90G: the self-cleavage was 0.03.
Then A22G U119G, with 1.51; and G25A C99G, with 0.06.
Take U26A A67U: the self-cleavage turned out to be 0.03.
Then A22G U115A, with 1.52; and A22G U115C, with 1.18.
Then G25U G49U, with 1.21; and A22U A77G, with 2.23; and A22U A77U, with 0.62.
Then A24G U29C, with 1.41.
Consider A22U C38U, for which the self-cleavage was 1.18.
Then A24G C98A, with 0.13; and A22U A50U, with 0.39; and U26A A50G, with 0.92.
Then G25A G35A, with 0.91.
Then A24G U47A, with 1.44; and A22G U102C, with 1.04; and A22G U102A, with 1.5.
As to G25C U102C, the self-cleavage was 1.31.
With U26A A57C, the self-cleavage worked out at 0.02.
Then A22G U100A, with 0.98.
With A22G U100C, the self-cleavage stood at 1.75.
U23C U91G: the self-cleavage is 0.15.
Consider U23C U91C, for which the self-cleavage was 1.18.
U23A U26C: the self-cleavage is 0.99.
A22U U47C: the self-cleavage came to 1.04.
Then A22U U47A, with 1.44; and U23A U47C, with 1.88.
Then U26A A30U, with 1.56; and A22U U130A, with 1.38.
For the variant U23C A142U, the self-cleavage worked out at 2.35.
Then G25A A92U, with 0.25.
For U23C G144A, the self-cleavage is 1.28.
Then A24U G122U, with 1.33; and A24G C63A, with 0; and G25A U47C, with 0.54.
Consider U23C C133A, for which the self-cleavage turned out to be 1.09.
Then A24U C145U, with 1.4.
As to A22U U23C, the self-cleavage worked out at 0.87.
Then U23A U29A, with 1.24; and U23A U29C, with 1.02; and U23A A141G, with 1.21.
Then U23C A69U, with 0.02; and A22G U132G, with 1.67; and A24G A31U, with 1.37.
Take A24C A64U: the self-cleavage is 0.58.
Then A24C A64G, with 0.64; and A22U A141G, with 1.29.
Then U23C U52C, with 1.43; and A24G C51U, with 1.68; and U23C A138G, with 1.95.
Then A24U A57G, with 0.56.
As for A24U A67G, the self-cleavage was found to be 0.43.
Then A22G U109C, with 1.36; and U23C G34A, with 1.26.
Take U23C G34U: the self-cleavage was found to be 1.44.
For the variant A24G G106A, the self-cleavage came to 0.78.
Then A24U U119G, with 2.22; and A24U U47C, with 1.57.
For the variant G25A A136G, the self-cleavage worked out at 1.58.
As to A24G A67U, the self-cleavage worked out at 0.24.
Then A24G A77U, with 1.04; and U23C A124G, with 1.52; and A22U C123A, with 1.17.
Consider G25A U104A, for which the self-cleavage is 1.03.
Then U23C C63U, with 0.35; and U23C A57U, with 0.18.
Turning to U23C A57G, the self-cleavage turned out to be 1.2.
For the variant A22U G55A, the self-cleavage was 0.37.
Then A24U A92U, with 0.7; and A24U G137U, with 2.12.
Then A22U A42G, with 1.54; and A22U A43G, with 1.01.
Then U23A A129G, with 2.15.
For the variant A24G A64C, the self-cleavage is 0.38.
Take A24G A64G: the self-cleavage was found to be 0.53.
Then U23A G93A, with 0.08; and A24U U102C, with 1.09.
In the case of A24U A121G, the self-cleavage was 1.08.
Consider A22U U46A, for which the self-cleavage is 1.2.
Then A24C A67G, with 0.42; and U23A U46A, with 0.6.
Then A22U U26A, with 0.5; and U23A G144A, with 1.85; and U23G U109A, with 1.
For U23G A140G, the self-cleavage stood at 1.27.
Then G25C U119C, with 1.58.
Consider U23A U45A, for which the self-cleavage amounted to 1.28.
G25A A64G: the self-cleavage amounted to 0.27.
With G25A A64U, the self-cleavage is 0.4.

The record behind these values is the RNAGym collection of RNA variant scans (doi:10.7554/elife.90254).
